Measurements taken from publication PMC9541495, “Understanding the interaction of 14‐3‐3 proteins with hDMX and hDM2: a structural and biophysical study” (The Febs Journal, 2022).
[ ]: non-standard residue; d: D form. pS = N[C@@H](COP(=O)(O)O)C(=O)O

What was measured:
Settings in all cases: both partners purified
[1] = molecular target: T1, FAM‐Ahx‐hDMX_(335‐373) ^pSer342/pSer367 (human, phosphoserine at 342 and at 367; N-terminal FAM-Ahx (5,6-carboxyfluorescein on an aminohexanoic acid linker); C-terminal amide); assay: fluorescence polarisation; fluorescence anisotropy, direct titration: 14-3-3 protein titrated (1/2 dilution series) against 50 nM FAM-Ahx tracer peptide; 10 mM HEPES, 150 mM NaCl, 0.1% Tween 20, 0.1% BSA, pH 7.4; 384 well plates, triplicates; protein concentration as 14-3-3 monomer; 1:1 fit, biphasic curves fitted as two separate 1:1 events (Kd1, Kd2)
T1 construct: hDMX (human double minute 4 protein, hDM4), human, residues 335-373; Tracer form used in the FA assays; source: synthetic peptide (Fmoc SPPS on Rink amide ProTide resin, HPLC purified)
T1 peptide: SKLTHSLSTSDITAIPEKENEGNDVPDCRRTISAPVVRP

14‐3‐3η [2] = molecular target: T2, 14‐3‐3η (human, UniProt Q04917 1-246); assay: ITC; acetylated peptide in the syringe titrated into 14-3-3η in the cell; 25 °C; 25 mM HEPES pH 7.5, 100 mM NaCl, 10 mM MgCl2, 0.5 mM TCEP; MicroCal iTC200
T2 construct: 14-3-3 eta, human, full-length protein from the pProEx HTb-His-14-3-3 construct; Captured on an NTA chip in SPR; source: E. coli BL21(DE3), purified (Ni2+-NTA, dialysis)
T2 sequence (looked up): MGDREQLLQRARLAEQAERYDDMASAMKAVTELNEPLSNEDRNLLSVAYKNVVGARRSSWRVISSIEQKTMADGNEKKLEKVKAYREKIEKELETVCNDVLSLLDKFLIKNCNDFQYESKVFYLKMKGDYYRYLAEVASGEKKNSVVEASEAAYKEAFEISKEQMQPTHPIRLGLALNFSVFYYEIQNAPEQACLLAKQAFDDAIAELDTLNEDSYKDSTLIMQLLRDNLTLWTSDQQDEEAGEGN

14‐3‐3η [3] = molecular target: T2, 14‐3‐3η; assay: SPR; 14-3-3η immobilised on an NTA sensor chip (Ni2+ capture and amine coupling, about 2000 RU); acetylated peptides injected, 11 serial dilutions from 10x the FA Kd; 25 °C; Biacore T200; multicycle kinetics fitted to a Langmuir model, Kd from steady state dose-response

B1: 14‐3‐3β (natural protein, human, UniProt P31946 1-246, looked up)
chain: MTMDKSELVQKAKLAEQAERYDDMAAAMKAVTEQGHELSNEERNLLSVAYKNVVGARRSSWRVISSIEQKTERNEKKQQMGKEYREKIEAELQDICNDVLELLDKYLIPNATQPESKVFYLKMKGDYFRYLSEVASGDNKQTTVSNSQQAYQEAFEISKKEMQPTHPIRLGLALNFSVFYYEILNSPEKACSLAKTAFDEAIAELDTLNEESYKDSTLIMQLLRDNLTLWTSENQGDEGDAGEGEN
notes: 14-3-3 beta, human, full-length protein from the pProEx HTb-His-14-3-3 construct; Written as the protomer; tag removal is told only for the ∆C proteins; source: E. coli BL21(DE3), purified (Ni2+-NTA, dialysis)
**Q.** How did the “Kd1 (first binding event)” value [1] turn out when B1 was run?
**A.** The value was 0.026 ± 0.099 µM.

B2: Ac‐hDMX_(335‐349) ^pSer342 (peptide)
peptide: Ac-SKLTHSL[pS]TSDITAI-NH2
SMILES: CC[C@H](C)[C@H](NC(=O)[C@H](C)NC(=O)[C@@H](NC(=O)[C@@H](NC(=O)[C@H](CC(=O)O)NC(=O)[C@H](CO)NC(=O)[C@@H](NC(=O)[C@H](COP(=O)(O)O)NC(=O)[C@H](CC(C)C)NC(=O)[C@H](CO)NC(=O)[C@H](Cc1c[nH]cn1)NC(=O)[C@@H](NC(=O)[C@H](CC(C)C)NC(=O)[C@H](CCCCN)NC(=O)[C@H](CO)NC(C)=O)[C@@H](C)O)[C@@H](C)O)[C@@H](C)CC)[C@@H](C)O)C(N)=O
notes: hDMX (human double minute 4 protein, hDM4), human, residues 335-349; Acetylated form used for ITC and SPR; source: synthetic peptide (Fmoc SPPS, HPLC purified)
**Q.** Which results are given for B2?
**A.** Kd (14‐3‐3η [2]): 21000 ± 3000 nM; dH (14‐3‐3η [2]): -21.4 ± 1 kJ/mol; stoichiometry N (14‐3‐3η [2]): 0.72; Kd (14‐3‐3η [3]): 37000 nM

B3: Ac‐hDMX_(361‐374) ^pSer367 (peptide)
peptide: Ac-DCRRTI[pS]APVVRPK-NH2
SMILES: CC[C@H](C)[C@H](NC(=O)[C@@H](NC(=O)[C@H](CCCNC(=N)N)NC(=O)[C@H](CCCNC(=N)N)NC(=O)[C@H](CS)NC(=O)[C@H](CC(=O)O)NC(C)=O)[C@@H](C)O)C(=O)N[C@@H](COP(=O)(O)O)C(=O)N[C@@H](C)C(=O)N1CCC[C@H]1C(=O)N[C@H](C(=O)N[C@H](C(=O)N[C@@H](CCCNC(=N)N)C(=O)N1CCC[C@H]1C(=O)N[C@@H](CCCCN)C(N)=O)C(C)C)C(C)C
notes: Acetylated form used for ITC, SPR and crystallography; source: synthetic peptide (Fmoc SPPS, HPLC purified)
**Q.** Which results are given for B3?
**A.** Kd (14‐3‐3η [2]): 870 ± 95 nM; dH (14‐3‐3η [2]): -16.1 ± 0.2 kJ/mol; stoichiometry N (14‐3‐3η [2]): 1.28; Kd (14‐3‐3η [3]): 189 nM; koff (14‐3‐3η [3]): 0.121 s⁻¹; kon (14‐3‐3η [3]): 389000 M⁻¹ s⁻¹

B4: Ac‐hDMX_(335‐373) ^pSer342/pSer367 (peptide)
peptide: Ac-SKLTHSL[pS]TSDITAIPEKENEGNDVPDCRRTI[pS]APVVRP-NH2
SMILES: CC[C@H](C)[C@H](NC(=O)[C@H](CC(=O)O)NC(=O)[C@H](CO)NC(=O)[C@@H](NC(=O)[C@H](COP(=O)(O)O)NC(=O)[C@H](CC(C)C)NC(=O)[C@H](CO)NC(=O)[C@H](Cc1c[nH]cn1)NC(=O)[C@@H](NC(=O)[C@H](CC(C)C)NC(=O)[C@H](CCCCN)NC(=O)[C@H](CO)NC(C)=O)[C@@H](C)O)[C@@H](C)O)C(=O)N[C@H](C(=O)N[C@@H](C)C(=O)N[C@H](C(=O)N1CCC[C@H]1C(=O)N[C@@H](CCC(=O)O)C(=O)N[C@@H](CCCCN)C(=O)N[C@@H](CCC(=O)O)C(=O)N[C@@H](CC(N)=O)C(=O)N[C@@H](CCC(=O)O)C(=O)NCC(=O)N[C@@H](CC(N)=O)C(=O)N[C@@H](CC(=O)O)C(=O)N[C@H](C(=O)N1CCC[C@H]1C(=O)N[C@@H](CC(=O)O)C(=O)N[C@@H](CS)C(=O)N[C@@H](CCCNC(=N)N)C(=O)N[C@@H](CCCNC(=N)N)C(=O)N[C@H](C(=O)N[C@H](C(=O)N[C@@H](COP(=O)(O)O)C(=O)N[C@@H](C)C(=O)N1CCC[C@H]1C(=O)N[C@H](C(=O)N[C@H](C(=O)N[C@@H](CCCNC(=N)N)C(=O)N1CCC[C@H]1C(N)=O)C(C)C)C(C)C)[C@@H](C)CC)[C@@H](C)O)C(C)C)[C@@H](C)CC)[C@@H](C)O
notes: hDMX (human double minute 4 protein, hDM4), human, residues 335-373; Acetylated form used for ITC, SPR and crystallography; source: synthetic peptide (Fmoc SPPS on Rink amide ProTide resin, HPLC purified)
**Q.** Which Kd (14‐3‐3η [2]) does the source give for B4 here?
**A.** The Kd was 14 ± 10 nM.

**Q.** What about the dH (14‐3‐3η [2]) of the same binder?
**A.** Its dH is -22.1 ± 0.7 kJ/mol.

**Q.** What about the “stoichiometry N” value (14‐3‐3η [2]) of the same binder?
**A.** Its value is 0.94.

**Q.** And the Kd (14‐3‐3η [3])?
**A.** The Kd was 8.6 nM.

**Q.** What about the koff (14‐3‐3η [3]) of the same binder?
**A.** Its koff is 0.0048 s⁻¹.

**Q.** And the kon (14‐3‐3η [3])?
**A.** Its kon is 1.51e+06 M⁻¹ s⁻¹.
